The record followed here is PMC2901514 (The Febs Journal, 2010).

As usually defined, the stoichiometry N is a count of units in the complex or per binding partner.

The data set deals with the molecule itself. Briefly: SEC. (In general: SEC sorts molecules by how far they enter the pores of the column.)

B1: CMP-Neu5Ac synthetase (CNS) from Neisseria meningitidis, K142A mutant (enzyme)
chain: MEKQNIAVILARQNSKGLPLKNLRKMNGISLLGHTINAAISSKCFDRIIVSTDGGLIAEEAKNFGVEVVLRPAELASDTASSISGVIHALETIGSNSGTVTLLQPTSPLRTGAHIREAFSLFDEKIKGSVVSACPMEHHPLATLLQINNGEYAPMRHLSDLEQPRQQLPQAFRPNGAIYINDTASLIANNCFFIAPTKLYIMSHQDSIDIDTELDLQQAENILNHKES
With B1, the “stoichiometry N” value was 2.
